Measurements reported in US9029340.

Target: prostate-specific membrane antigen (PSMA) (human) (UniProt Q04609)
Experiment: flow cytometry; J591 (1:5000) plus Alexa488 secondary on PC3-PIP cells, PSMA-negative PC3-Flu cells as reference

Chain of UniProt Q04609 (Q04609 whole entry): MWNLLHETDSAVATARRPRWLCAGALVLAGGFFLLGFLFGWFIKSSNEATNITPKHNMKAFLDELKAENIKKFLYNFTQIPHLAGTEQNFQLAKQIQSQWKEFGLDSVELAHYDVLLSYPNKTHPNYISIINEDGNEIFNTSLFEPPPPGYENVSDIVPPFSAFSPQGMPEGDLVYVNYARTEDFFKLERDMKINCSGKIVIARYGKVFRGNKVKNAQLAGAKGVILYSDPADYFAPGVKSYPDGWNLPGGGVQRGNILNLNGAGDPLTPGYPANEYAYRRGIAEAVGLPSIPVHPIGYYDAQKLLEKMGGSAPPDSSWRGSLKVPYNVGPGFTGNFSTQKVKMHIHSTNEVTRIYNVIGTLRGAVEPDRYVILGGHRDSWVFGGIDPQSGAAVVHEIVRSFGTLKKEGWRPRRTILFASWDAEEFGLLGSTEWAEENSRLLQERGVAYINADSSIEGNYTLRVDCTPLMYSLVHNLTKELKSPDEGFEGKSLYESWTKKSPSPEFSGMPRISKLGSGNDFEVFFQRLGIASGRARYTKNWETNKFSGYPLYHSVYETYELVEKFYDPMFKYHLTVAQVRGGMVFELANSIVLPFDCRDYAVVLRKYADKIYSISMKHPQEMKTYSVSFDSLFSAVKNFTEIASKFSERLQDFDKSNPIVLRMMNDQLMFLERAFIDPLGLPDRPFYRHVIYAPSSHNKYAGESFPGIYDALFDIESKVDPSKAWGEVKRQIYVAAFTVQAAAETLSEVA

percent of cells stained positive: 48.2%
Substance: anti-PSMA (J591) antibody
